# Assay results from PMC6703430, “Combining Mutations That Inhibit Two Distinct Steps of the ATP Hydrolysis Cycle Restores Wild-Type Function in the Lipopolysaccharide Transporter and Shows that ATP Binding Triggers Transport” (mBio, 2019).
# Target: the molecule itself
# Assay: crystal structure; ATP-bound His8-LptB^E163Q, 1.96 Å; hanging drops, reservoir 28% PEG 4000, 100 mM MES pH 6.75, 600 mM NaCl; space group C222(1)
protein,measurement,value
"His8-LptB^E163Q (enzyme, E. coli, UniProt P0A9V1 1-241, looked up, catalytically dead E163Q variant; the CTD is fully resolved up to L241, the last residue of LptB; A TEV protease cleavage site stands between the His8 tag and LptB; no TEV cleavage is described; also called His8TEV-LptB(E163Q); His-LptB(E163Q); source: E. coli KRX, pET28b(+)-His8TEV-LptB(E163Q), purified (Ni-NTA, gel filtration on Superdex 200); not shown: His8, N-terminal, kept) MATLTAKNLAKAYKGRRVVEDVSLTVNSGEIVGLLGPNGAGKTTTFYMVVGIVPRDAGNIIIDDDDISLLPLHARARRGIGYLPQEASIFRRLSVYDNLMAVLQIRDDLSAEQREDRANELMEEFHIEHLRDSMGQSLSGGERRRVEIARALAANPKFILLDQPFAGVDPISVIDIKRIIEHLRDSGLGVLITDHNVRETLAVCERAYIVSQGHLIAHGTPTEILQDEHVKRVYLGEDFRL",stoichiometry N,2
